Source: PMC11674972
Where “and” joins values, the source holds several entries; their conditions need not be identical. Identical values can stand only once.

What was measured:
[1] = biological target: FcγRI (Biotinylated Human CD64 Protein, His, Avitag) (human) (UniProt P12314); test: SPR; Biacore T200; biotinylated FcγRI immobilised on streptavidin chip SA; AVT 1.875-30 nM; 1x HBS-EP pH 7.4, 22 °C; double referenced; steady-state affinity algorithm
[2] = biological target: FcγRI (Biotinylated Human CD64 Protein, His, Avitag) (human) (UniProt P12314); test: SPR; Biacore T200; biotinylated FcγRI immobilised on streptavidin chip SA (target 200 RU); AVT 1.875-30 nM injected 60 s at 50 uL/min; 1x HBS-EP pH 7.4, 22 °C; double referenced; heterogeneous ligand kinetics model
[3] = biological target: FcγRI (Biotinylated Human CD64 Protein, His, Avitag) (human) (UniProt P12314); test: SPR; Biacore T200; biotinylated FcγRI immobilised on streptavidin chip SA; AVT 1.875-30 nM; 1x HBS-EP pH 7.4, 22 °C; 1:1 Langmuir binding model (fit poorer than the heterogeneous ligand model)

Sequence of UniProt P12314 (P12314 16-292): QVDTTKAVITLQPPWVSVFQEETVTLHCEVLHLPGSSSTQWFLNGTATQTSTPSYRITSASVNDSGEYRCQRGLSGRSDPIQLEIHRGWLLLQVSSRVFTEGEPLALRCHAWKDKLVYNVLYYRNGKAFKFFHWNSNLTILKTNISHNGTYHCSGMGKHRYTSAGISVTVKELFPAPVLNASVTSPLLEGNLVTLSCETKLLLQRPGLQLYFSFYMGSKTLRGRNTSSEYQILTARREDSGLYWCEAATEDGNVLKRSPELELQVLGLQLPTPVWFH

Bevacizumab (Avastin) (antibody)
Kd [1]: 13500 pM
KD, set 1 (heterogeneous ligand model) [2]: 2.67 pM and 1.55 pM and 2.59 pM
KD, set 1 (heterogeneous ligand model), mean [2]: 2.27 pM
ka, set 1 (heterogeneous ligand model) [2]: 333000 M⁻¹ s⁻¹ and 276000 M⁻¹ s⁻¹ and 335000 M⁻¹ s⁻¹
ka, set 1 (heterogeneous ligand model), mean [2]: 315000 M⁻¹ s⁻¹
kd, set 1 (heterogeneous ligand model) [2]: 8.9e-07 s⁻¹ and 4.27e-07 s⁻¹ and 8.67e-07 s⁻¹
kd, set 1 (heterogeneous ligand model), mean [2]: 7.28e-07 s⁻¹
Kd [3]: 420 pM
